According to PMC12806483, “Dual role of ramR mutation in enhancing immune activation and elevating eravacycline resistance in Klebsiella pneumoniae”:

Key:
Assay in all cases: EMSA; 2 uM protein, 200 nM DNA
Conditions in all cases: protein: recombinant; tags: N-terminal His6; chain copies: 2; label: none (NA-Green stain); blunt
RamR WT = RamR WT (Klebsiella pneumoniae, UniProt A0A0H3GJQ8 1-194)
RamR L58P = RamR L58P (Klebsiella pneumoniae, UniProt A0A0H3GJQ8 1-194, L58P)
RamR I141T = RamR I141T (Klebsiella pneumoniae, UniProt A0A0H3GJQ8 1-194, I141T)

B1: ramA promoter probe (ramA P-F/ramA P-R) (dsDNA)
DNA 1: AAAACGAATCGTCCTGCATGCCCAGGCAGCACCGCGCGAGCGCGCAGGTCGTCGGCAGCCTGAGCCGTTTCATCCGGCATCATGTGGATATATTTCCAGTC
DNA 2: GACTGGAAATATATCCACATGATGCCGGATGAAACGGCTCAGGCTGCCGACGACCTGCGCGCTCGCGCGGTGCTGCCTGGGCATGCAGGACGATTCGTTTT
binding result (RamR WT): binds | binding result (RamR L58P): no binding | binding result (RamR I141T): binds
